Reference: US5591427A, “Human Interleukin-3(Il-3) variants and their use to promote or antagonize IL-3-mediated processes” (Medvet Science Pty. Ltd., priority 1979, dated 1997)

Columns and labels:
monocytes = test: Stimulation of human monocyte adherence (51Cr adhesion assay); assay type: cell-based
Procedure: (a) Monocyte purification. Monocytes were purified from the peripheral blood of normal donors, obtained from the Adelaide Red Cross Transfusion Service, as previously described (Elliott et. al., 1990, J. Immunol., 145, 167-171). In brief, mononuclear cells were prepared by centrifugation of whole blood on lymphoprep cushions (Nyegaard, Oslo, Norway) and washed twice in HBSS, 0.02% EDTA, 0.1% heat inactivated FCS (Flow Laboratories, North Ryde, Australia) and monocytes were purified in a Beckman J-6M/E elutriator using the Sanderson chamber, a flow rate of 12 ml/min and a constant rotor speed of 2050 rpm. Cells remaining in the chamber after 30 min were collected, washed twice in HBSS, and used immediately. Using these methods, monocyte purity as assessed by morphology and nonspecific-esterase staining was always >90% and usually >95%. The major contaminating cell types were lymphocytes and granulocytes (principally basophils).
(b) Adhesion assay. Adhesion was measured by an isotopic method essentially as described (Elliott et. al., supra). In brief, purified monocytes (0.5 to 1×10^8) were resuspended in 1 ml RPMI 1640 with 0.1% FCS and antibiotics and incubated for 30 min at 37° C. with 500 μCi^51 Cr in the form of sodium chromate (Amersham International., Buckinghamshire, England). Cells were washed thrice in RPMI 1640 and resuspended in culture medium consisting of RPMI 1640, 10% FCS, antibiotics, and 0.2% sodium bicarbonate. For measurement of adhesion, 1 to 2.5×10^5 monocytes were aliquotted per well in 96-well microtitre plates (Nunc, Karnstrup, Denmark) together with stimuli or control medium to a total volume of […], and incubated for the indicated periods. […] At harvest, samples of supernatant were taken to assess spontaneous ^51 Cr release (usually <10% of cell-associated radioactivity), wells were washed three times with RPMI 1640 at 37° C., and residual adherent cells lysed in 10 mM Tris-hydrochloride, and 1% Nonident p40 detergent (Sigma). Lysates were transferred to tubes and counted in a Packard auto-gamma 5650. Percent adherence was calculated according to the formula: [formula]

basophils = test: Histamine release assay with basophils; assay type: cell-based, human; conditions: FIG. 4
Procedure: This was carried out as previously described (Lopez et. al., 1990, J. Cell. Physiol., 145, 69-77). Briefly, basophils were obtained from the peripheral blood of normal individuals after dextran sedimentation and centrifugation over Lymphoprep. The percentage of basophils in these preparations varied between 0.2% and 10%. In 300 μl 2×10^4 cells were incubated with 2 μg/ml of purified human IgE. IgE-sensitisedcells were mixed with a goat IgG antihuman IgE (Cappel 0101-0061) and rhIL-3, in a final volume of 500 μl. After incubation for 60 min at 37° C., the cells were centrifuged and 350 μl aliquots removed and stored at -20° C. before assaying for histamine content. Histamine was assayed using a radioertzymatic method essentially as described (Shaff and Beavan, 1979, Anal. Biochem., 94, 425-430). Briefly, samples of 30 μl were diluted with an equal volume of water and mixed with a 30 μl solution comprising 27.5 μl 0.1 M sodium phosphate, pH 7.9, 1.5 μl rat kidney histamine-N-methyltransferase, and 1.0 μl (0.5 μCi)^3 H-methyl-S-adensoyl-L-methionine (Dupont Net 155, low SA). Tritium-labelled methyl-histamine was extracted into chloroform/ether, dried, and counted by scintillation spectrophotometry. […] as nanograms of histamine per milliliter by extrapolation to a standard curve constructed with 10, 5 and 1 ng/ml of histamine (SIGMA).

IL-3R α chain = biological target: T1, IL-3R α chain (Homo sapiens, UniProt P26951); test: Competition for 125I-IL-3 binding to cloned IL-3R α chain expressed in COS cell transfectants; conditions: for competition for 125I-IL-3 binding to cells expressing only the α chain: FIG. 6
T1 construct: amplify the complete coding region of the IL-3R alpha chain; expressed in transfected cells; host or cells: COS cells (pCDM8 vector, electroporation)
T1 sequence (P26951 19-378): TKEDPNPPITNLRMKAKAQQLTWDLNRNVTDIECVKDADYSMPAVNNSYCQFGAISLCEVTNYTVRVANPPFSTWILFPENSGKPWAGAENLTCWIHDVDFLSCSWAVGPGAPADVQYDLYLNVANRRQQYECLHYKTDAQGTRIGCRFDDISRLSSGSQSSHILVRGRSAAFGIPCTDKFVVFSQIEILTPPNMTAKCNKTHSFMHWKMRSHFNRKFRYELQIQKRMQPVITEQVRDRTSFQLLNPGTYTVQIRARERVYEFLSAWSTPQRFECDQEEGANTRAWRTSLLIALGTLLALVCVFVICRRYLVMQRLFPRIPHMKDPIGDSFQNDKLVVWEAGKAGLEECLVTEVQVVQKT
Text: PolyA+ RNA was isolated from the human cord blood cell line KMT2. Oligo dT primed double stranded cDNA was synthesised and used as template for PCR amplification. The PCR primers were designed to amplify the complete coding region of the IL-3R alpha chain and also to amplify the coding region of the […]. The PCR products were cloned into the vector pGEM-2 for sequence verification, and then into the eukaryotic expression vector, pCDM8. The […]-containing plasmid was transfected into COS cells by electroporation, either on its own or in conjunction with the […], and after two days the cells were used for binding studies.

B1: M37: human IL-3 mutant, Asp 101 replaced by Ala and Lys 116 by Val (protein, UniProt P08700 20-152, looked up, variant D101A K116V)
Interleukin-3: APMTQTTPLKTSWVNCSNMIDEIITHLKQPPLPLLDFNNLNGEDQDILMENNLRRPNLEAFNRAVKSLQNASAIESILKNLLPCLPLATAAPTRHPIHIKAGDWNEFRRKLTFYLVTLENAQAQQTTLSLAIF
stimulation of monocyte adherence (monocytes; FIG. 3): more potent than the wild type IL-3
Relative biological activity, MONOCYTE (monocytes; concentration of IL-3 mutant giving 50% of biological activity compared to that of wild type IL-3): 2100
histamine release from basophils (basophils): increased histamine release
fold higher affinity than wild type IL-3 (IL-3R α chain; COS cells transfected with IL-3R α chain cDNA, E. coli produced protein): 10 fold
competition for 125I-IL-3 binding to cells expressing only the α chain (IL-3R α chain): competed for binding more efficiently
competition for 125I-IL-3 binding to cells expressing only the α chain (IL-3R α chain; listed as IL-3 (Ala^101, Val^116)): more potent at competing for binding than wild-type IL-3
